{
  "source": "paper PMC4118823",
  "about": "“Structural and biophysical analysis of interactions between cod and human uracil-DNA N-glycosylase (UNG) and UNG inhibitor (Ugi)” (Acta Crystallographica Section D: Biological Crystallography, 2014)",
  "key": {"[1]": {"molecular_target": "T1, Uracil-DNA N-glycosylase from Atlantic cod (Atlantic cod, UniProt Q9I983 82-301)", "T1 construct": "Catalytic domain of uracil-DNA N-glycosylase (UNG) from Atlantic cod; Lanes et al., 2002). numbers count on: hUNG numbering; also called cUNG; cod UNG; source: recombinantly produced in E. coli; expression and purification as described previously (Assefa et al., 2012)", "T1 sequence (Q9I983 entry or part of it)": "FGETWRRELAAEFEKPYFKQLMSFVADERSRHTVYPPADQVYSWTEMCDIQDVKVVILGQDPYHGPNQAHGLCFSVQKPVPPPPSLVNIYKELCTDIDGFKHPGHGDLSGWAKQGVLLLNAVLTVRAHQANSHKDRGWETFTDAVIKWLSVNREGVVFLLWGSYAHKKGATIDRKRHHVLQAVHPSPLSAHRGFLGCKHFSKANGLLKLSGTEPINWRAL", "test": "ITC; Ugi (267-667 µM, syringe) injected into UNG (20-50 µM, cell); 25°C; 20 mM sodium phosphate pH 7.5, 200 mM sodium chloride; single-site binding model", "settings": "both partners purified"}, "[2]": {"molecular_target": "T2, human uracil-DNA N-glycosylase (human, UniProt P13051-2 1-304)", "T2 construct": "Human uracil-DNA N-glycosylase (UNG), recombinant; also called hUNG; human UNG; source: expression and purification as described previously (Assefa et al., 2012)", "T2 sequence (P13051 94-313)": "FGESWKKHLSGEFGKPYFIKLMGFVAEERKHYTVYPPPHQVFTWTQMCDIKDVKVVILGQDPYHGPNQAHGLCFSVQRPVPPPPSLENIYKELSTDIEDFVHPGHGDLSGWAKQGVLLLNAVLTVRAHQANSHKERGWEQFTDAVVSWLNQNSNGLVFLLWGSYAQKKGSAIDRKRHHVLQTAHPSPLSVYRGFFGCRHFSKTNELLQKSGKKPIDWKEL", "test": "ITC; Ugi (267-667 µM, syringe) injected into UNG (20-50 µM, cell); 25°C; 20 mM sodium phosphate pH 7.5, 200 mM sodium chloride; single-site binding model", "settings": "both partners purified"}},
  "data": [
    {"binder": "uracil-DNA N-glycosylase inhibitor (Ugi) (natural protein, expressed from a recombinant pRSETb plasmid provided by T. Géoui; source: E. coli BL21 (DE3) pLysS, purified (heating to 95°C, Q-Sepharose, Superdex 75)) MTNLSDIIEKETGKQLVIQESILMLPEEVEEVIGNKPESDILVHTAYDESTDENVMLLTSDAPEYKPWALVIQDSNGENKIKML", "values": [
      {"measurement": "Ka", "setting": "[1]", "value": "3.25e+07", "unit": "M⁻¹"},
      {"measurement": "Kd", "setting": "[1]", "value": 31, "unit": "nM"},
      {"measurement": "dH", "setting": "[1]", "value": -6, "unit": "kcal/mol"},
      {"measurement": "stoichiometry N", "setting": "[1]", "value": 0.994},
      {"measurement": "Ka", "setting": "[2]", "value": "1.5e+06", "unit": "M⁻¹"},
      {"measurement": "Kd", "setting": "[2]", "value": 685, "unit": "nM"},
      {"measurement": "dH", "setting": "[2]", "value": -2.25, "unit": "kcal/mol"},
      {"measurement": "stoichiometry N", "setting": "[2]", "value": 0.921}
    ]}
  ]
}
